Laboratory results from patent US20200283478A1 (Genentech, published 2020).
One block for each binder: values may come before it. Bridge positions count the residues as written; N and C are the ends. Square brackets hold non-standard residues; d marks the D form. Primed or numbered codes have the meaning given here. hArg = N=C(N)NCCCC[C@H](N)C(=O)O; Hyp′ = 3-hydroxyproline; Ahp = NCCCCCCC(=O)O; Ahx = NCCCCCC(=O)O

Key:
[1] = target: T1, His-tagged, full-length PCSK9 (human, UniProt Q8NBP7 31-692); experiment: TR-FRET competition (PCSK9/EGF(A) assay); competitor EGF(A)-Fc;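 further: proximity signal from anti-His APC on PCSK9 paired with anti-Fc europium on the Fc ligand, read as normalized TR-FRET ratio across compound dilutions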
T1 construct: secreted PCSK9 is autocatalytically cleaved into prodomain and catalytic domain + CRD (from S153), which stay associated; also called His-PCSK9; proprotein convertase subtilisin/kexin type 9; not shown: His tag

His-tagged PCSK9Δhelix = target: T2, His-tagged PCSK9Δhelix (human, UniProt Q8NBP7 31-152; Q8NBP7 168-692); experiment: TR-FRET competition (PCSK9Δhelix/Ab20 assay); competitor Ab20
T2 construct: Human PCSK9 M1-Q692 with an engineered TEV site, cut by TEV protease; new N-terminus of the catalytic domain is S-A168; also called His-PCSK9Δhelix; not shown: His tag
T2 sequence (Q8NBP7 31-152, stated change not applied, chain 1 of 2): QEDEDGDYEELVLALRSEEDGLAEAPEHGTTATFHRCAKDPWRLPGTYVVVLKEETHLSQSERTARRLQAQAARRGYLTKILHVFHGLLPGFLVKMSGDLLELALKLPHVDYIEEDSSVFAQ
T2 sequence (Q8NBP7 other isoform, or with tags, fused parts or gaps mutant, chain 2 of 2): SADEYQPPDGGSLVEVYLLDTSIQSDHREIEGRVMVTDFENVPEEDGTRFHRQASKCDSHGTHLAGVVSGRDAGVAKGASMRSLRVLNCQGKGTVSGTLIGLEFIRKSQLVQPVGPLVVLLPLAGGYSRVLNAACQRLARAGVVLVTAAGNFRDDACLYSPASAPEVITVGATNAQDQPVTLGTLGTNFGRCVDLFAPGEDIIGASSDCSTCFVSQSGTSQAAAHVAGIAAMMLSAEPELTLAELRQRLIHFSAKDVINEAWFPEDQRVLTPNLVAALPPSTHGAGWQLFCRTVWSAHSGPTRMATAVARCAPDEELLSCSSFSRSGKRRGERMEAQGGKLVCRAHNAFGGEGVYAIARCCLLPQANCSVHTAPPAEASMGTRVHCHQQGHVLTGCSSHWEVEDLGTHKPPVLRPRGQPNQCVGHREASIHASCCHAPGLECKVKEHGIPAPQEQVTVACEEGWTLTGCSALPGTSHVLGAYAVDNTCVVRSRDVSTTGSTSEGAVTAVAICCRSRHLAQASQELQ

T1 sequence (Q8NBP7 31-692 limits assumed): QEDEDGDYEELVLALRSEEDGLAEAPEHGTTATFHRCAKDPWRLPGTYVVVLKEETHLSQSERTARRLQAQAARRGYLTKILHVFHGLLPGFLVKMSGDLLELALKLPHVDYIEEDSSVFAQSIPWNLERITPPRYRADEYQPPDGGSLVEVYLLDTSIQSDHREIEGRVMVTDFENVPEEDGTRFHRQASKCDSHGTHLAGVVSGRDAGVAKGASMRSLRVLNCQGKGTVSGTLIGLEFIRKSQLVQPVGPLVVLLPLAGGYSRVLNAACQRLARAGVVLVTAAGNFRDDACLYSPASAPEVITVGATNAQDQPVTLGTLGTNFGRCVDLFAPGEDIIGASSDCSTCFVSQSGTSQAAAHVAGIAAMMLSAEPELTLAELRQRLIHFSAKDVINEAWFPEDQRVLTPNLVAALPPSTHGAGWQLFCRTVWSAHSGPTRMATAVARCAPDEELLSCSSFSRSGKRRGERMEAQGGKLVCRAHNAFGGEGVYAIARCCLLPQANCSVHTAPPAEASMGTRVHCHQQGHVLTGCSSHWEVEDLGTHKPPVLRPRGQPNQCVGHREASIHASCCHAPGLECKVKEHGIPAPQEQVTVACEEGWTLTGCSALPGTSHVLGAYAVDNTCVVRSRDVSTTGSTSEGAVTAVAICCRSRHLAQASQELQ

B9: Compound 77 (Ac-CRLAWNLQRIGLPC-NH2) (peptide)
peptide: Ac-CRLAWNLQRIGLPC-NH2
modifications: disulfide 1-14
SMILES: CC[C@H](C)[C@@H]1NC(=O)[C@H](CCCNC(=N)N)NC(=O)[C@H](CCC(N)=O)NC(=O)[C@H](CC(C)C)NC(=O)[C@H](CC(N)=O)NC(=O)[C@H](Cc2c[nH]c3ccccc23)NC(=O)[C@H](C)NC(=O)[C@H](CC(C)C)NC(=O)[C@H](CCCNC(=N)N)NC(=O)[C@@H](NC(C)=O)CSSC[C@@H](C(N)=O)NC(=O)[C@@H]2CCCN2C(=O)[C@H](CC(C)C)NC(=O)CNC1=O
- IC50 [1]: > 50 µM
- IC50 (His-tagged PCSK9Δhelix): 6.02 µM

B10: Compound 79 (Ac-CALPWNLQRIGLPC-NH2) (peptide)
peptide: Ac-CALPWNLQRIGLPC-NH2
modifications: disulfide 1-14
SMILES: CC[C@H](C)[C@@H]1NC(=O)[C@H](CCCNC(=N)N)NC(=O)[C@H](CCC(N)=O)NC(=O)[C@H](CC(C)C)NC(=O)[C@H](CC(N)=O)NC(=O)[C@H](Cc2c[nH]c3ccccc23)NC(=O)[C@@H]2CCCN2C(=O)[C@H](CC(C)C)NC(=O)[C@H](C)NC(=O)[C@@H](NC(C)=O)CSSC[C@@H](C(N)=O)NC(=O)[C@@H]2CCCN2C(=O)[C@H](CC(C)C)NC(=O)CNC1=O
- IC50 [1]: > 50 µM
- IC50 (His-tagged PCSK9Δhelix): 1.53 µM

B11: Compound 75 (Ac-CRLPWALQRIGLPC-NH2) (peptide)
peptide: Ac-CRLPWALQRIGLPC-NH2
modifications: disulfide 1-14
SMILES: CC[C@H](C)[C@@H]1NC(=O)[C@H](CCCNC(=N)N)NC(=O)[C@H](CCC(N)=O)NC(=O)[C@H](CC(C)C)NC(=O)[C@H](C)NC(=O)[C@H](Cc2c[nH]c3ccccc23)NC(=O)[C@@H]2CCCN2C(=O)[C@H](CC(C)C)NC(=O)[C@H](CCCNC(=N)N)NC(=O)[C@@H](NC(C)=O)CSSC[C@@H](C(N)=O)NC(=O)[C@@H]2CCCN2C(=O)[C@H](CC(C)C)NC(=O)CNC1=O
- IC50 [1]: > 50 µM
- IC50 (His-tagged PCSK9Δhelix): 49.5 µM

B12: Compound 80 (Ac-CRLPWNLQRIGLGC-NH2) (peptide)
peptide: Ac-CRLPWNLQRIGLGC-NH2
modifications: disulfide 1-14
SMILES: CC[C@H](C)[C@@H]1NC(=O)[C@H](CCCNC(=N)N)NC(=O)[C@H](CCC(N)=O)NC(=O)[C@H](CC(C)C)NC(=O)[C@H](CC(N)=O)NC(=O)[C@H](Cc2c[nH]c3ccccc23)NC(=O)[C@@H]2CCCN2C(=O)[C@H](CC(C)C)NC(=O)[C@H](CCCNC(=N)N)NC(=O)[C@@H](NC(C)=O)CSSC[C@@H](C(N)=O)NC(=O)CNC(=O)[C@H](CC(C)C)NC(=O)CNC1=O
- IC50 [1]: > 50 µM
- IC50 (His-tagged PCSK9Δhelix): 0.65 µM

B13: Compound 117 (Ac-CRLPWNLQ(homoR)IGLPC-NH2) (peptide)
peptide: Ac-CRLPWNLQ[hArg]IGLPC-NH2
modifications: disulfide 1-14
SMILES: CC[C@H](C)[C@@H]1NC(=O)[C@H](CCCCNC(=N)N)NC(=O)[C@H](CCC(N)=O)NC(=O)[C@H](CC(C)C)NC(=O)[C@H](CC(N)=O)NC(=O)[C@H](Cc2c[nH]c3ccccc23)NC(=O)[C@@H]2CCCN2C(=O)[C@H](CC(C)C)NC(=O)[C@H](CCCNC(=N)N)NC(=O)[C@@H](NC(C)=O)CSSC[C@@H](C(N)=O)NC(=O)[C@@H]2CCCN2C(=O)[C@H](CC(C)C)NC(=O)CNC1=O
- IC50 [1]: > 50 µM
- IC50 (His-tagged PCSK9Δhelix): 0.334 µM

B14: Compound 110 (Ac-cRLPWNLQRIGLPC-NH2) (peptide)
peptide: Ac-[dC]RLPWNLQRIGLPC-NH2
modifications: disulfide 1-14
SMILES: CC[C@H](C)[C@@H]1NC(=O)[C@H](CCCNC(=N)N)NC(=O)[C@H](CCC(N)=O)NC(=O)[C@H](CC(C)C)NC(=O)[C@H](CC(N)=O)NC(=O)[C@H](Cc2c[nH]c3ccccc23)NC(=O)[C@@H]2CCCN2C(=O)[C@H](CC(C)C)NC(=O)[C@H](CCCNC(=N)N)NC(=O)[C@H](NC(C)=O)CSSC[C@@H](C(N)=O)NC(=O)[C@@H]2CCCN2C(=O)[C@H](CC(C)C)NC(=O)CNC1=O
- IC50 [1]: > 50 µM
- IC50 (His-tagged PCSK9Δhelix): 1.78 µM

B15: Compound 108 (Ac-CRlPWNLQRIGLPC-NH2) (peptide)
peptide: Ac-CR[dL]PWNLQRIGLPC-NH2
modifications: disulfide 1-14
SMILES: CC[C@H](C)[C@@H]1NC(=O)[C@H](CCCNC(=N)N)NC(=O)[C@H](CCC(N)=O)NC(=O)[C@H](CC(C)C)NC(=O)[C@H](CC(N)=O)NC(=O)[C@H](Cc2c[nH]c3ccccc23)NC(=O)[C@@H]2CCCN2C(=O)[C@@H](CC(C)C)NC(=O)[C@H](CCCNC(=N)N)NC(=O)[C@@H](NC(C)=O)CSSC[C@@H](C(N)=O)NC(=O)[C@@H]2CCCN2C(=O)[C@H](CC(C)C)NC(=O)CNC1=O
- IC50 [1]: > 50 µM
- IC50 (His-tagged PCSK9Δhelix): 28.2 µM

The next lines start with the values.

- IC50 [1]: > 50 µM
- IC50 (His-tagged PCSK9Δhelix): 40.3 µM
B1: Compound 121 (Ac-CRLPWNLQRI-(Ahp)-C-NH2) (peptide)
peptide: Ac-CRLPWNLQRI[Ahp]C-NH2
modifications: disulfide 1-12
SMILES: CC[C@H](C)[C@@H]1NC(=O)[C@H](CCCNC(=N)N)NC(=O)[C@H](CCC(N)=O)NC(=O)[C@H](CC(C)C)NC(=O)[C@H](CC(N)=O)NC(=O)[C@H](Cc2c[nH]c3ccccc23)NC(=O)[C@@H]2CCCN2C(=O)[C@H](CC(C)C)NC(=O)[C@H](CCCNC(=N)N)NC(=O)[C@@H](NC(C)=O)CSSC[C@@H](C(N)=O)NC(=O)CCCCCCNC1=O

- IC50 [1]: > 50 µM
- IC50 (His-tagged PCSK9Δhelix): 1.3 µM
B2: Compound 99 (Ac-CRLPWNLQRIGLpC-NH2) (peptide)
peptide: Ac-CRLPWNLQRIGL[dP]C-NH2
modifications: disulfide 1-14
SMILES: CC[C@H](C)[C@@H]1NC(=O)[C@H](CCCNC(=N)N)NC(=O)[C@H](CCC(N)=O)NC(=O)[C@H](CC(C)C)NC(=O)[C@H](CC(N)=O)NC(=O)[C@H](Cc2c[nH]c3ccccc23)NC(=O)[C@@H]2CCCN2C(=O)[C@H](CC(C)C)NC(=O)[C@H](CCCNC(=N)N)NC(=O)[C@@H](NC(C)=O)CSSC[C@@H](C(N)=O)NC(=O)[C@H]2CCCN2C(=O)[C@H](CC(C)C)NC(=O)CNC1=O

- IC50 [1]: > 50 µM
- IC50 (His-tagged PCSK9Δhelix): 11.1 µM
Binder: Ac-SGCRL[Hyp′]WNLQRIGLPC-NH2 (disulfide 3-16) [Compound 37 (Ac-SG-CRL(Hyp)WNLQRIGLPC-NH2)]

- IC50 [1]: > 50 µM
- IC50 (His-tagged PCSK9Δhelix): 1.67 µM
B3: Compound 109 (Ac-CrLPWNLQRIGLPC-NH2) (peptide)
peptide: Ac-C[dR]LPWNLQRIGLPC-NH2
modifications: disulfide 1-14
SMILES: CC[C@H](C)[C@@H]1NC(=O)[C@H](CCCNC(=N)N)NC(=O)[C@H](CCC(N)=O)NC(=O)[C@H](CC(C)C)NC(=O)[C@H](CC(N)=O)NC(=O)[C@H](Cc2c[nH]c3ccccc23)NC(=O)[C@@H]2CCCN2C(=O)[C@H](CC(C)C)NC(=O)[C@@H](CCCNC(=N)N)NC(=O)[C@@H](NC(C)=O)CSSC[C@@H](C(N)=O)NC(=O)[C@@H]2CCCN2C(=O)[C@H](CC(C)C)NC(=O)CNC1=O

- IC50 [1]: > 50 µM
- IC50 (His-tagged PCSK9Δhelix): 31.6 µM
B4: Compound 116 (Ac-CRLPWNLQRI-(Ahx)-C-NH2) (peptide)
peptide: Ac-CRLPWNLQRI[Ahx]C-NH2
modifications: disulfide 1-12
SMILES: CC[C@H](C)[C@@H]1NC(=O)[C@H](CCCNC(=N)N)NC(=O)[C@H](CCC(N)=O)NC(=O)[C@H](CC(C)C)NC(=O)[C@H](CC(N)=O)NC(=O)[C@H](Cc2c[nH]c3ccccc23)NC(=O)[C@@H]2CCCN2C(=O)[C@H](CC(C)C)NC(=O)[C@H](CCCNC(=N)N)NC(=O)[C@@H](NC(C)=O)CSSC[C@@H](C(N)=O)NC(=O)CCCCCNC1=O

- IC50 [1]: > 50 µM
- IC50 (His-tagged PCSK9Δhelix): 49.5 µM
B5: Compound 74 (Ac-CRLPWNAQRIGLPC-NH2) (peptide)
peptide: Ac-CRLPWNAQRIGLPC-NH2
modifications: disulfide 1-14
SMILES: CC[C@H](C)[C@@H]1NC(=O)[C@H](CCCNC(=N)N)NC(=O)[C@H](CCC(N)=O)NC(=O)[C@H](C)NC(=O)[C@H](CC(N)=O)NC(=O)[C@H](Cc2c[nH]c3ccccc23)NC(=O)[C@@H]2CCCN2C(=O)[C@H](CC(C)C)NC(=O)[C@H](CCCNC(=N)N)NC(=O)[C@@H](NC(C)=O)CSSC[C@@H](C(N)=O)NC(=O)[C@@H]2CCCN2C(=O)[C@H](CC(C)C)NC(=O)CNC1=O

- IC50 [1]: > 50 µM
- IC50 (His-tagged PCSK9Δhelix): 5.56 µM
B6: Compound 78 (Ac-CRAPWNLQRIGLPC-NH2) (peptide)
peptide: Ac-CRAPWNLQRIGLPC-NH2
modifications: disulfide 1-14
SMILES: CC[C@H](C)[C@@H]1NC(=O)[C@H](CCCNC(=N)N)NC(=O)[C@H](CCC(N)=O)NC(=O)[C@H](CC(C)C)NC(=O)[C@H](CC(N)=O)NC(=O)[C@H](Cc2c[nH]c3ccccc23)NC(=O)[C@@H]2CCCN2C(=O)[C@H](C)NC(=O)[C@H](CCCNC(=N)N)NC(=O)[C@@H](NC(C)=O)CSSC[C@@H](C(N)=O)NC(=O)[C@@H]2CCCN2C(=O)[C@H](CC(C)C)NC(=O)CNC1=O

- IC50 [1]: > 50 µM
- IC50 (His-tagged PCSK9Δhelix): 28.8 µM
B7: Compound 81 (Ac-CRLPWNLQRIGGGC-NH2) (peptide)
peptide: Ac-CRLPWNLQRIGGGC-NH2
modifications: disulfide 1-14
SMILES: CC[C@H](C)[C@@H]1NC(=O)[C@H](CCCNC(=N)N)NC(=O)[C@H](CCC(N)=O)NC(=O)[C@H](CC(C)C)NC(=O)[C@H](CC(N)=O)NC(=O)[C@H](Cc2c[nH]c3ccccc23)NC(=O)[C@@H]2CCCN2C(=O)[C@H](CC(C)C)NC(=O)[C@H](CCCNC(=N)N)NC(=O)[C@@H](NC(C)=O)CSSC[C@@H](C(N)=O)NC(=O)CNC(=O)CNC(=O)CNC1=O

- IC50 [1]: > 50 µM
- IC50 (His-tagged PCSK9Δhelix): 49.5 µM
B8: Compound 76 (Ac-CRLPANLQRIGLPC-NH2) (peptide)
peptide: Ac-CRLPANLQRIGLPC-NH2
modifications: disulfide 1-14
SMILES: CC[C@H](C)[C@@H]1NC(=O)[C@H](CCCNC(=N)N)NC(=O)[C@H](CCC(N)=O)NC(=O)[C@H](CC(C)C)NC(=O)[C@H](CC(N)=O)NC(=O)[C@H](C)NC(=O)[C@@H]2CCCN2C(=O)[C@H](CC(C)C)NC(=O)[C@H](CCCNC(=N)N)NC(=O)[C@@H](NC(C)=O)CSSC[C@@H](C(N)=O)NC(=O)[C@@H]2CCCN2C(=O)[C@H](CC(C)C)NC(=O)CNC1=O
